We go through 62 sequences from the Immune Epitope Database (IEDB).

The target in assay [1] is HLA-B*35:01. In words: IEDB peptide-MHC binding, purified MHC/competitive/radioactivity; filed as Kd, often an IC50 or EC50 that approximates it; ≥ and ≤ were set here for values at or beyond the usual limits of such assays.
Assay [2] has as its target HLA-A*30:01. Described as above.
Assay [3] concerns the target HLA-B*15:01. The description is as above.
For assay [4], the target named is HLA-B*08:01. The description is as above.
The target of assay [5] is HLA-A*02:03. The assay is described as above.
Assay [6] concerns the target HLA-A*32:01. Described as above.
Assay [7] deals with HLA-A*02:02. The description is as above. The following applies: source organism: Vaccinia virus WR.
The target of assay [8] is HLA-A*02:06. The assay is described as above. Conditions: source organism: Vaccinia virus WR.
The target of assay [9] is HLA-B*18:01. Briefly: IEDB peptide-MHC binding, purified MHC/direct/fluorescence; filed as Kd, often an IC50 or EC50 that approximates it; ≥ and ≤ were set here for values at or beyond the usual limits of such assays.
Assay [10] concerns the target HLA-A*11:01. In words: IEDB peptide-MHC binding, purified MHC/competitive/radioactivity; filed as Kd, often an IC50 or EC50 that approximates it; ≥ and ≤ were set here for values at or beyond the usual limits of such assays. The following applies: source organism: Dengue virus 3 Martinique/1243/1999.
Assay [11] deals with HLA-A*26:01. The assay is described as above.
The target of assay [12] is HLA-A*01:01. The assay is described as above.
Assay [13] concerns the target HLA-A*29:02. Described as above.
Assay [14] concerns the target HLA-A*30:02. The description is as above.
The target of assay [15] is HLA-A*03:01. The description is as above. Conditions: source organism: Dengue virus 4 Philippines/H241/1956.
Assay [16] has as its target HLA-B*58:01. Briefly: IEDB peptide-MHC binding, purified MHC/direct/fluorescence; filed as Kd, often an IC50 or EC50 that approximates it; ≥ and ≤ were set here for values at or beyond the usual limits of such assays. The following applies: source organism: Influenza A virus (A/swine/Hong Kong/273/1994(H1N1)).
In assay [17] the target is HLA-B*07:02. The description is as above. Conditions: source organism: Influenza A virus (A/swine/Hong Kong/273/1994(H1N1)).
Assay [18] has as its target HLA-A*03:01. The description is as above. Conditions: source organism: Influenza A virus (A/swine/Hong Kong/273/1994(H1N1)).
Assay [19] has as its target HLA-A*02:12. Described as above. The following applies: source organism: Influenza C virus.
Assay [20] has as its target HLA-A*01:01. The description is as above. Conditions: source organism: Influenza A virus (A/swine/Hong Kong/273/1994(H1N1)).
The target of assay [21] is HLA-B*15:01. The assay is described as above. Conditions: source organism: Influenza A virus (A/swine/Hong Kong/273/1994(H1N1)).
Assay [22] addresses HLA-B*27:05. The assay is described as above. Conditions: source organism: Influenza A virus (A/swine/Hong Kong/273/1994(H1N1)).
The target in assay [23] is HLA-B*51:01. In words: IEDB peptide-MHC binding, purified MHC/competitive/radioactivity; filed as Kd, often an IC50 or EC50 that approximates it; ≥ and ≤ were set here for values at or beyond the usual limits of such assays. The following applies: source organism: Dengue virus 4 Philippines/H241/1956.
Assay [24] has as its target HLA-A*24:03. Briefly: IEDB peptide-MHC binding, purified MHC/direct/fluorescence; filed as Kd, often an IC50 or EC50 that approximates it; ≥ and ≤ were set here for values at or beyond the usual limits of such assays. The following applies: source organism: Vibrio parahaemolyticus.
For assay [25], the target named is HLA-B*51:01. In words: IEDB peptide-MHC binding, purified MHC/competitive/fluorescence; filed as Kd, often an IC50 or EC50 that approximates it; ≥ and ≤ were set here for values at or beyond the usual limits of such assays.
Assay [26] addresses HLA-B*40:01. In words: IEDB peptide-MHC binding, purified MHC/direct/fluorescence; filed as Kd, often an IC50 or EC50 that approximates it; ≥ and ≤ were set here for values at or beyond the usual limits of such assays. The following applies: source organism: Entamoeba histolytica HM-1:IMSS.
Assay [27] addresses HLA-B*53:01. In words: IEDB peptide-MHC binding, purified MHC/competitive/radioactivity; filed as Kd, often an IC50 or EC50 that approximates it; ≥ and ≤ were set here for values at or beyond the usual limits of such assays.
Assay [28] concerns the target HLA-A*68:01. Described as above. The following applies: source organism: Dengue virus 1 Brazil/97-11/1997.
In assay [29] the target is HLA-B*44:02. Described as above. Conditions: source organism: Dengue virus 1 Singapore/S275/1990.
Where [30] appears, read: source organism: Dengue virus 4 Philippines/H241/1956.
Where [31] appears, read: source organism: Vaccinia virus WR.
Setting [32] is: source organism: Dengue virus 3 Martinique/1243/1999.
Setting [33] is: source organism: Dengue virus 2 Jamaica/1409/1983.
Setting [34] is: source organism: Dengue virus 1 Brazil/97-11/1997.
Where [35] appears, read: source organism: Vaccinia virus Copenhagen.
Where [36] appears, read: source organism: Mammarenavirus guanaritoense.
Where [37] appears, read: source organism: Mammarenavirus brazilense.
[38] abbreviates: source organism: Dengue virus 2 16681-PDK53.
Where [39] appears, read: source organism: Dengue virus 1 Singapore/S275/1990.
[40] abbreviates: source organism: Dengue virus 3 Singapore/8120/1995.

As to WAFCEVLTL, the Kd in assay [1] (setting [30]) was determined as 571 nM.

On to KVIVRNLNK, for which the Kd in assay [2] (setting [31]) came out at 1.44 nM.

With NSKSRICVI, the Kd in assay [3] (setting [31]) is 1400 nM; in assay [4] (setting [31]), 11.1 nM.

Consider LLITHYAII, for which the Kd was determined as 18.1 nM in [5] (setting [32]) and 371 nM in assay [4] (setting [32]).

With LTLDIFYLF, in assay [6] (setting [31]), the Kd stood at 4.4 nM.

On to GGALVRNPLS, for which the Kd in assay [2] (setting [33]) was 5290 nM.

LVKESMASL: the Kd is 1120 nM in assay [7], 136 nM in assay [8], 9.46 nM in [5] (setting [31]) and 94.8 nM in assay [2] (setting [31]).

Consider IFKLTYQNK, for which the Kd in [2] (setting [33]) amounted to 340 nM.

In the case of KSAHFLLIF, the Kd in [6] (setting [31]) was 0.185 nM.

In the case of MSRKFMQVY, in [2] (setting [31]), the Kd is 1.46 nM.

With SKGWNDWQQV, the Kd in assay [6] (setting [34]) is no less than 56200 nM.

Regarding AIFMTATPPG, in assay [2] (setting [34]), the Kd worked out at 179 nM.

As for QVLMMRTTW, in [6] (setting [33]), the Kd is 73.5 nM.

Take MILFLKLLI: the Kd in assay [6] (setting [31]) is 715 nM.

Take RTRGPLGIL: the Kd in assay [2] (setting [31]) was determined as 0.0861 nM.

For SKGWKNWQEV, the Kd in [6] (setting [30]) was 19800 nM.

Turning to KAERVIDPRR, the Kd in assay [2] (setting [33]) is 11400 nM.

For LLVWHTWQKQ, in assay [6] (setting [32]), the Kd was no less than 23300 nM.

NEAKVLELL gave a Kd in [9] (source organism: West Nile virus) of 38 nM.

Take KIDFLFFII: in [6] (setting [35]), the Kd is 1.97 nM.

In the case of ATQLATLRK, the Kd in assay [10] was determined as 67.8 nM; in assay [2] (setting [32]) it was 5.76 nM.

As to MLDDLTMGY, the Kd in assay [11] (setting [36]) is 7290 nM; in assay [12] (setting [36]) it was 1.12 nM; in assay [6] (setting [36]), 2140 nM; in [2] (setting [36]) it was 12900 nM; in [13] (setting [36]), 125 nM; in assay [14] (setting [36]) it was 226 nM.

Take KTMMINPFM: the Kd in assay [2] (setting [31]) worked out at 0.362 nM.

With DIMALIVSI, the Kd in assay [6] (source organism: Vaccinia virus) was 114 nM.

As for ILKRWGQLK, the values for the Kd in assay [15] and in assay [2] (setting [30]) were 3.58 nM and 318 nM, respectively.

EWIFRALKY: the Kd in assay [11] (setting [37]) was 7080 nM; in assay [12] (setting [37]) it was no less than 37300 nM; in assay [6] (setting [37]), no less than 77800 nM; in assay [2] (setting [37]), no less than 38000 nM; in [13] (setting [37]) it was 183 nM; in assay [14] (setting [37]) it was 7750 nM.

Take KARDALDNL: the Kd in [2] (setting [33]) turned out to be 71.5 nM.

Regarding RVHDTNATK, the Kd in assay [2] (setting [31]) is 7.65 nM.

On to GMFNMLSTV, for which the Kd in assay [16] was no less than 20000 nM; in assay [17], no less than 20000 nM; in assay [18], no less than 20000 nM; in [19], 49 nM; in assay [20] it was no less than 20000 nM; in assay [21] it was 105 nM. In assay [22], this sequence showed a Kd of 10100 nM.

As to LPVYLMTLMK, the Kd in assay [23] amounted to 7150 nM; in assay [1] (setting [30]), 330 nM.

Take AFYLWIVGF: the Kd in assay [24] came out at 2100 nM.

With KARNALDNL, the Kd in assay [2] (setting [38]) turned out to be 19.7 nM.

Take HMILVVVTTL: the values for the Kd in assay [3] (setting [30]) and in [4] (setting [30]) were 408 nM and 5170 nM, respectively.

Take HLIFSYAFL: the Kd in assay [2] (setting [31]) turned out to be 213 nM.

Turning to LSYEPDNIV, in assay [25] (source organism: Listeria monocytogenes 10403S), the Kd was no less than 20000 nM.

As to HASPTLFNA, the Kd in assay [2] (setting [31]) is 66.3 nM.

As for SAVPVHWVPT, in [6] (setting [32]), the Kd was found to be 2000 nM.

RLIVLFEVF: the Kd in assay [6] (setting [31]) is 12.6 nM; in [3] (setting [31]) it was 6.84 nM.

As to CTILAVVSVS, the Kd in [11] (setting [38]) was no less than 69700 nM; in [2] (setting [38]), 9700 nM.

Sequence LALDSYWPV gave a Kd in assay [25] (source organism: Yersinia pestis Nepal516) of 711 nM.

As to REVEEIIKY, the Kd in [26] was 94.1 nM; in [9] (source organism: Entamoeba histolytica HM-1:IMSS), 25.3 nM.

Turning to KVKNVHIGG, in assay [2] (setting [31]), the Kd is 0.338 nM.

RVKQISIST: the Kd in assay [2] (setting [35]) is 0.369 nM.

Regarding LDILTEIASL, the Kd in assay [4] (setting [30]) was 871 nM.

For ILCYFILIF, the Kd in assay [6] (setting [31]) worked out at 11500 nM.

With ENRLHKECL, in assay [4] (setting [31]), the Kd came out at 73.2 nM.

On to MSIMPVLAY, for which the values for the Kd in [6] (setting [31]) and in assay [3] (setting [31]) were 99.7 nM and 1.37 nM, respectively.

Turning to WAKNIHTAI, the Kd in assay [4] (setting [30]) worked out at 23.3 nM.

As to EPNFSIPQI, the Kd in assay [25] (source organism: Mycobacterium tuberculosis variant bovis BCG str. Pasteur 1173P2) is 268 nM.

With IGILLTWLGL, the Kd in assay [6] (setting [34]) was no less than 38800 nM.

Regarding ATMANEMGF, in assay [6] (setting [33]), the equilibrium dissociation constant (Kd) was determined as 138 nM.

Take VAATMANEM: the Kd in assay [1] (setting [33]) stood at 572 nM.

In the case of WATLLSLTF, the Kd in assay [1] (setting [39]) came out at 125 nM; in assay [27] (setting [39]), 4.07 nM.

With MPGIFQTTTG, the Kd in [1] (setting [40]) is 1180 nM; in assay [27] (setting [40]) it was 546 nM.

Take GMNSRSTSL: the Kd in assay [5] (setting [33]) is 18.2 nM; in [3] (setting [33]), 86.6 nM; in [4] (setting [33]), 7.81 nM.

Turning to FTNMEVQLIR, the Kd in [28] is 87.4 nM; in assay [1] (setting [34]), 14600 nM.

Consider MRFKKESSL, for which, in assay [4] (setting [31]), the Kd worked out at 3.4 nM.

In the case of MSKIKHKIF, the Kd in assay [4] (setting [31]) amounted to 0.842 nM.

The sequence IPNDFKELV registered a Kd in assay [25] (source organism: Rickettsia typhi str. Wilmington) of 446 nM.

In the case of AGILARWGSF, the Kd in [6] (setting [39]) was found to be 1140 nM; in [29] it was 12600 nM.

Take WNTGFDWITD: in assay [6] (setting [30]), the Kd was found to be 1150 nM.

Sequence RERGLALHV displayed a Kd in assay [9] (source organism: Salmonella enterica subsp. enterica serovar Typhimurium str. LT2) of 4500 nM.
